Results taken from patent publication US20230183753A1, “Methods of in Vitro Cell Delivery” (Intellia Therapeutics, Inc., priority 2020, published 2023).
Oligonucleotides are written 5' to 3', each unit as a sugar letter and its base; * is a phosphorothioate linkage, no mark a phosphodiester; rarer units and linkages stand in square brackets, end groups in braces. Plain capitals give the bases only. m = 2'-O-methyl; r = 2'-OH (RNA)

What was measured:
[1] = system: B2M, CD3, MHC II; assay: Flow cytometry of antigen negative T cells (B2M, CD3, MHC II) after BC22n or Cas9 editing, Example 16A; assay type: cell-based, human
Text: Cells were subsequently washed, processed on a Cytoflex instrument (Beckman Coulter) and analyzed using the FlowJo software package. T cells were gated based on size, shape, viability, and antigen expression.

[2] = system: B2M, TRAC, TRBC1/2, CIITA; assay: NGS editing profile of T cells with BC22n or Cas9 mRNA, single or four guides, LNP titration, Example 16A; assay type: cell-based, human; conditions: LNP;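 further: activated T cells exposed to LNPs 72 h after activation, kept at 37 °C, harvested on day 10 post activation, editing measured by NGS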
[3] = multiple guide delivery (four guides simultaneously), locus of the guide assayed, editor BC22n, total RNA 8.6 ng
[4] = multiple guide delivery (four guides simultaneously), locus of the guide assayed, editor BC22n, total RNA 17.2 ng
[5] = multiple guide delivery (four guides simultaneously), locus of the guide assayed, editor BC22n, total RNA 34.4 ng
[6] = multiple guide delivery (four guides simultaneously), locus of the guide assayed, editor BC22n, total RNA 68.8 ng
[7] = multiple guide delivery (four guides simultaneously), locus of the guide assayed, editor BC22n, total RNA 137.5 ng
[8] = multiple guide delivery (four guides simultaneously), locus of the guide assayed, editor BC22n, total RNA 275.0 ng
[9] = multiple guide delivery (four guides simultaneously), locus of the guide assayed, editor BC22n, total RNA 550.0 ng
[10] = multiple guide delivery (four guides simultaneously), locus of the guide assayed, editor Cas9, total RNA 8.6 ng
[11] = multiple guide delivery (four guides simultaneously), locus of the guide assayed, editor Cas9, total RNA 17.2 ng
[12] = multiple guide delivery (four guides simultaneously), locus of the guide assayed, editor Cas9, total RNA 34.4 ng
[13] = multiple guide delivery (four guides simultaneously), locus of the guide assayed, editor Cas9, total RNA 68.8 ng
[14] = multiple guide delivery (four guides simultaneously), locus of the guide assayed, editor Cas9, total RNA 137.5 ng
[15] = multiple guide delivery (four guides simultaneously), locus of the guide assayed, editor Cas9, total RNA 275.0 ng
[16] = multiple guide delivery (four guides simultaneously), locus of the guide assayed, editor Cas9, total RNA 550.0 ng
[17] = single guide delivery, editor BC22n, total RNA 8.6 ng
[18] = single guide delivery, editor BC22n, total RNA 17.2 ng
[19] = single guide delivery, editor BC22n, total RNA 34.4 ng
[20] = single guide delivery, editor BC22n, total RNA 68.8 ng
[21] = single guide delivery, editor BC22n, total RNA 137.5 ng
[22] = single guide delivery, editor BC22n, total RNA 275.0 ng
[23] = single guide delivery, editor BC22n, total RNA 550.0 ng
[24] = single guide delivery, editor Cas9, total RNA 8.6 ng
[25] = single guide delivery, editor Cas9, total RNA 17.2 ng
[26] = single guide delivery, editor Cas9, total RNA 34.4 ng
[27] = single guide delivery, editor Cas9, total RNA 68.8 ng
[28] = single guide delivery, editor Cas9, total RNA 137.5 ng
[29] = single guide delivery, editor Cas9, total RNA 275.0 ng

B1: G016206: guide targeting TRBC1/2 (SEQ ID NO: 713) (nucleic acid)
guide: mC*mG*mC*rUrGrUrCrArArGrUrCrCrArGrUrUrCrUrArGrUrUrUrUrArGrAmGmCmUmAmGmAmAmAmUmAmGmCrArArGrUrUrArArArArUrArArGrGrCrUrArGrUrCrCrGrUrUrArUrCrAmAmCmUmUmGmAmAmAmAmAmGmUmGmGmCmAmCmCmGmAmGmUmCmGmGmUmGmCmU*mU*mU*mU
[1]; editor BC22n, total RNA 8.6 ng
  percent cells negative for antigen, CD3 neg, Mean %: 32.6%
[1]; editor BC22n, total RNA 17.2 ng
  percent cells negative for antigen, CD3 neg, Mean %: 53.4%
[1]; editor BC22n, total RNA 34.4 ng
  percent cells negative for antigen, CD3 neg, Mean %: 71.9%
[1]; editor BC22n, total RNA 68.8 ng
  percent cells negative for antigen, CD3 neg, Mean %: 82.9%
[1]; editor BC22n, total RNA 137.5 ng
  percent cells negative for antigen, CD3 neg, Mean %: 90.4%
[1]; editor BC22n, total RNA 275.0 ng
  percent cells negative for antigen, CD3 neg, Mean %: 96.0%
[1]; editor BC22n, total RNA 550.0 ng
  percent cells negative for antigen, CD3 neg, Mean %: 97.9%
[1]; editor Cas9, total RNA 8.6 ng
  percent cells negative for antigen, CD3 neg, Mean %: 7.9%
[1]; editor Cas9, total RNA 17.2 ng
  percent cells negative for antigen, CD3 neg, Mean %: 16.1%
[1]; editor Cas9, total RNA 34.4 ng
  percent cells negative for antigen, CD3 neg, Mean %: 27.0%
[1]; editor Cas9, total RNA 68.8 ng
  percent cells negative for antigen, CD3 neg, Mean %: 40.6%
[1]; editor Cas9, total RNA 137.5 ng
  percent cells negative for antigen, CD3 neg, Mean %: 59.4%
[1]; editor Cas9, total RNA 275.0 ng
  percent cells negative for antigen, CD3 neg, Mean %: 77.3%
[1]; editor Cas9, total RNA 550.0 ng
  percent cells negative for antigen, CD3 neg, Mean %: 86.6%
[2]; [3]
  C-to-A/G % mean: 2.6%
  C-to-T % mean: 11.6%
  Indel % mean: 2.8%
[2]; [4]
  C-to-A/G % mean: 3.6%
  C-to-T % mean: 23.4%
  Indel % mean: 2.6%
[2]; [5]
  C-to-A/G % mean: 3.7%
  C-to-T % mean: 38.5%
  Indel % mean: 2.9%
[2]; [6]
  C-to-A/G % mean: 2.3%
  C-to-T % mean: 55.6%
  Indel % mean: 2.4%
[2]; [7]
  C-to-A/G % mean: 1.8%
  C-to-T % mean: 72.4%
  Indel % mean: 1.7%
[2]; [8]
  C-to-A/G % mean: 1.9%
  C-to-T % mean: 85.1%
  Indel % mean: 1.7%
[2]; [9]
  C-to-A/G % mean: 2.2%
  C-to-T % mean: 89.8%
  Indel % mean: 0.9%
[2]; [10]
  C-to-A/G % mean: 0.7%
  C-to-T % mean: 0.2%
  Indel % mean: 2.3%
[2]; [11]
  C-to-A/G % mean: 0.7%
  C-to-T % mean: 0.3%
  Indel % mean: 4.2%
[2]; [12]
  C-to-A/G % mean: 0.5%
  C-to-T % mean: 0.1%
  Indel % mean: 6.6%
[2]; [13]
  C-to-A/G % mean: 0.5%
  C-to-T % mean: 0.4%
  Indel % mean: 12.3%
[2]; [14]
  C-to-A/G % mean: 0.5%
  C-to-T % mean: 0.2%
  Indel % mean: 17.8%
[2]; [15]
  C-to-A/G % mean: 0.5%
  C-to-T % mean: 0.1%
  Indel % mean: 33.0%
[2]; [16]
  C-to-A/G % mean: 0.3%
  C-to-T % mean: 0.3%
  Indel % mean: 43.3%
[2]; [17]
  C-to-A/G % mean: 6.1%
  C-to-T % mean: 23.7%
  Indel % mean: 6.1%
[2]; [18]
  C-to-A/G % mean: 6.8%
  C-to-T % mean: 42.4%
  Indel % mean: 6.8%
[2]; [19]
  C-to-A/G % mean: 5.7%
  C-to-T % mean: 60.1%
  Indel % mean: 5.9%
[2]; [20]
  C-to-A/G % mean: 4.3%
  C-to-T % mean: 73.2%
  Indel % mean: 4.7%
[2]; [21]
  C-to-A/G % mean: 3.6%
  C-to-T % mean: 81.7%
  Indel % mean: 3.7%
[2]; [22]
  C-to-A/G % mean: 2.3%
  C-to-T % mean: 91.0%
  Indel % mean: 2.8%
[2]; [23]
  C-to-A/G % mean: 2.0%
  C-to-T % mean: 93.6%
  Indel % mean: 1.7%
[2]; [24]
  C-to-A/G % mean: 0.5%
  C-to-T % mean: 0.3%
  Indel % mean: 8.1%
[2]; [25]
  C-to-A/G % mean: 0.7%
  C-to-T % mean: 0.3%
  Indel % mean: 14.9%
[2]; [26]
  C-to-A/G % mean: 0.8%
  C-to-T % mean: 0.2%
  Indel % mean: 24.1%
[2]; [27]
  C-to-A/G % mean: 0.4%
  C-to-T % mean: 0.2%
  Indel % mean: 35.9%
[2]; [28]
  C-to-A/G % mean: 0.5%
  C-to-T % mean: 0.2%
  Indel % mean: 48.6%
[2]; [29]
  C-to-A/G % mean: 0.4%
  C-to-T % mean: 0.1%
  Indel % mean: 63.8%
